Data published in US20250163183A1 (COAGULANT THERAPEUTICS, published 2025).
Numbering of substitutions follows the chain as printed.

B1: LP1 (SR16983-R2-P3-D06) (VHH, not shown: small tags and cut ends)
VHH: QLQLVESGGGLVQAGGSLRLSCAASGSTFPINVFAWYRQAPGEQRELGELVAFIGRSGTTNYGDSVKGRFTISRDNAKNTVYLQMDSLRPEDTAVYYCNLGDYWGQGTQVTVSS
notes: Llama VHH purified from E. coli periplasm
B2: SR16983-R2-P2-G09 (VHH)
VHH: QLQLVESGGGLVQAGGSLRLSCVASGTTFSIEETYWYRLAPGKQRELVAVISGGGNTNYADSVKGRFTISRDNAKNTVYLQMNSLKPEDTAVYYCSARTIATVKWGQGIQVTVSS
B3: SR16983-R2-P4-G02 (VHH)
VHH: QLQLVESGGGLVQAGGSLRLSCAASGTTFSFVYMGWYRQAPGNQRDLVARISSDGSTNYADSVKGRFTISGDNAKNTVYLQMNSLRPEDTARYYCFYNGHLNKWGQGTQVTVSS
B4: SR16983-R2P1F04 (VHH)
VHH: B3 VHH with G26R, V32N, D54G, S56I, R86K
B5: SR16983-R3-P5-A11 (VHH)
VHH: B3 VHH with L2V, R19G, S84N, R86K, L101V
B6: LP5 (SR16983-R3-P2-F04) (VHH, not shown: small tags and cut ends)
VHH: QVQLVESGGGLVQHGGSLRLSCAVSGSIFTTATMAWYRQAPGKQRDWVAVITTGGSTRYADDVKGRFAISRDNAKNTVYLQMNNLKPEDTAVYYCNAATRLSSTNYWGQGTQVSVSS
notes: as for B1
B7: SR16983-R2-P4-B05 (VHH)
VHH: QVQLVESGGGLVQAGGSLRLSCAASGRVFGTYVMGWFRQAPGKEREFVAAFSRSTGHITYADSVKGRFTISRDDAKNTLYLQMNSLKPEDTAVYYCATRASINYNYANWPYWGQGTQVTVSS
B8: SR16983-R3P2A9 (VHH)
VHH: QVQLVESGGGLVQAGGSLRLSCAASGRTVGSYVMGWFRQAPGKERELLAASSRSTGNTVYADSVKGRFTISRDDAKNTVFLQMNSLKPEDTAVYYCAARASINYNYANWPYWGQGTQVTVSP
B9: SR16983-R2-P4-G01 (VHH)
VHH: B8 VHH with V2L, L47F, S51N, V79L, F80Y, A98T, T119N, P122S
B10: SR16983-R2P1C10 (VHH)
VHH: QLQLVESGGGLVQPGGSLRLSCAASGRIFGSYVMGWFRQAPGKEHEFVAASSRSTGNTVYLDSVKGRFTISRDDAKNTLYLQMNSLKPEDTAVYYCATRASINYNYANWPYRGQGTQVTVSS
B11: SR16983-R3P2G9 (VHH)
VHH: B10 VHH with L2V, I28T, H45R, S51A, L61P, T98A, R112W
B12: SR16983-R3-P4-E04 (VHH)
VHH: B8 VHH with V33A, M34V, L47F, V79L, F80Y, A98T, P122S
B13: LP21 (SR16983-R4-P1-D01) (VHH, not shown: small tags and cut ends)
VHH: QLQLVESGGGLVQAGESLRLSCVLSGSTFGRNVITWYRQPPGKQREFIAMITTSGSTRYADSVKGRFTMSRDTAKNTAFLQMSNLKLEDTAVYYCWTAIAGQGEYWGQGTQVTVSS
notes: as for B1
B14: SR16983-R3P2B6 (VHH)
VHH: QLQLVESGGGLVQAGGSLRLACAASGFSFDDYAIGWFRQAPGKEREGVSCITSDGSTYYADSVKGRFTISSDNAKNTVYLQMNILKPEDTAVYYCARGGLLLPKPELFEYWGQGTQVTVSS
B15: LP17 (SR16983-R4-P1-A09) (VHH, not shown: small tags and cut ends)
VHH: QLQLVESGGGLVQPGGSLRLSCAASGTTSSLNLMGWYRQAPGKKRESVAHMTSDGRTDYVDSVKGRFTISRDNSKNTVYLQMNNLKPEDTAVYICYANPFLGSWSNYWGQGTQVTVSS
notes: as for B1
B16: SR16983-R3-P2-A08 (VHH)
VHH: QVQLVESGGGLVQAGGSLRLSCAASGRTSSNYNMGWFRQAPGKEREFVAAIPWTGSTTYYADPVKGRFTISRDSTKNTGDLQMNSLKPEDTAVYYCALGRRENYYALLQQRGYDYWGQGTQVTVSS
B17: LP14 (SR16983-R3-P4-A06) (VHH, not shown: small tags and cut ends)
VHH: QLQLVESGGGLVQAGGSLRLSCTASGSTSSIVIISWYRQAPGEQRDLVATINNGGDVDVADFVKGRFTISRDNAKNAVYLQMNNLKPEDTAVYYCSARTPSLRVTWFWGQGTQVTVSS
notes: as for B1
B18: SR16983-R2P1C11 (VHH)
VHH: QLQLVESGGGLVQSGGSLRLSCTASGSTVRVTAGGWYRQAPGNERELVADIDNGGRPTYADSVKGRFTISRDNAKNAVDLQMNNLKPEDTAVYYCFVIAIPDSAPRPRAYWGQGTQVTVSS
B19: SR16983-R3-P4-G01 (VHH)
VHH: QLQLVESGGGLVQAGGSLRLSCAASGRTFVGSYVMGWFRQAPGKEREFVAASSRSTGNTVYLDSVKGRFTISRDDAKNMLYLQMNSLKPEDTAVYYCATRASINYNYANWPYWGQGTQVTVSS
B20: SR16983-R2-P2-G01 (VHH)
VHH: EVQLVESGGGLVQAGESLRLSCVVSGSRFRISGMGWYRQAPEKQRELVAAITRGGSTNYSDSVKGRFTISSDNAKNTVYLQMNSLKPDDTDVYYCAATVLDIPTMSTDDYWGQGTQVTVSS
B21: LP16 (SR16983-R4-P1-A04) (VHH, not shown: small tags and cut ends)
VHH: QLQLVESGGGLVEAGGSLRLSCAVSGTTFSANTMVWHRQAPGKQREWVARISSSGTTNYADSVRGRFSLSRGNAKNTVYLQMNSLKPDDTAVYYCNAILPSRSIWGRGTQVTVSS
notes: as for B1
B22: SR16983-R2-P2-D08 (VHH)
VHH: QLQLVESGGGLVQAGDSLRLSCALSGLAASTYAMAWFRQAPGKEREFVSVIDWKGDSTTANSVKGRFTISRDHGKNTVYLQMNSLQPEDTALYYCAARGSPGYVAKLYAHWGRGTQVTVSS
B23: SR16983-R3-P4-A08 (VHH)
VHH: B22 VHH with A23V, L24F, A28T, S57T, T59Y, H73N, K75N, N76K, K106R
B24: SR16983-R3-P3-F01 (VHH)
VHH: B22 VHH with Q1E, L2V, L24R, A28T, S57T, T59Y, H73N, G102A, K106R, H110Y
B25: LP6 (SR16983-R3-P2-F11) (VHH, not shown: small tags and cut ends)
VHH: QLQLVESGGGLVQPGGSLRLSCAASGSIGRLNVMGWFRQAPGKQRELVAVISSDNKKDYADSVQGRFTISRDNSKNTVYLQMNSLKPEDTAVYYCNVRWTMGGNYWGQGTQVTVSS
notes: as for B1
B26: SR16983-R3P2E05 (VHH)
VHH: QVQLVESGGGLVQAGGSLRLSCTTSGSTFSITAGGWYRQAPGEQRELVADVANDGSTSYAESVKGRFTISRDNAKNIVELQMSSLELEDTAVYVCFVVGISDSTPRPRAYWGQGTQVTVAS
B27: SR16983-R2-P2-D05 (VHH)
VHH: QVQLVESGGGLVQPGGSLTLSCAASGTIESINDMGWYRQAPGKQRELVAAITSGGSTNYADSVKGRFTISRDNAKNTVYLQMNSLKPEDTAVYYCNAEVKRHYYYDSAGHRYWGQGTQVTVSS
B28: SR16983-R3P2E7 (VHH)
VHH: QLQLVESGGGLVQAGGSLRLSCVASGTTFTIEDIGWYRLAPGKQRELVAIISGGNTNYADSVKGRFTISRDNAKNTVFLQMNSLKPEDTAVYYCNARTKATAKWGRGIQVTVSS

Columns and labels:
[1] = biological target: T1, human activated protein C (APC) (human, UniProt P04070 43-461); experiment: cell-based or functional assay
[2] = biological target: T1, human activated protein C (APC); experiment: BLI, VHH captured via anti-V5, APC in solution
[3] = biological target: T1, human activated protein C (APC); experiment: BLI (Octet): nanobody captured on anti-V5 sensor, dipped in 500 nM APC; buffer sensor reads 0.06
[4] = biological target: T2, human protein C (PC) zymogen (human, UniProt P04070 43-197; P04070 200-461); experiment: ELISA
T2 construct: Bought

[5] = biological target: T3, human APC-PPACK (active site-blocked APC) (human, UniProt P04070 43-461, active site bound by the tripeptide inhibitor Phe-Pro-Arg-chloromethylketone (PPACK)); experiment: ELISA
T3 construct: Bought (Haematologic Technologies)

FXIa = biological target: T4, FXIa (UniProt P03951 19-625); experiment: ELISA, FXIa coated at 10 µg/mL, HRP-anti-V5, n=3
T4 construct: also called factor XIa

FVIIa = biological target: T5, FVIIa (UniProt P08709 61-466); experiment: ELISA, FVIIa coated at 10 µg/mL, HRP-anti-V5, n=3
T5 construct: also called factor VIIa
T5 sequence (looked up): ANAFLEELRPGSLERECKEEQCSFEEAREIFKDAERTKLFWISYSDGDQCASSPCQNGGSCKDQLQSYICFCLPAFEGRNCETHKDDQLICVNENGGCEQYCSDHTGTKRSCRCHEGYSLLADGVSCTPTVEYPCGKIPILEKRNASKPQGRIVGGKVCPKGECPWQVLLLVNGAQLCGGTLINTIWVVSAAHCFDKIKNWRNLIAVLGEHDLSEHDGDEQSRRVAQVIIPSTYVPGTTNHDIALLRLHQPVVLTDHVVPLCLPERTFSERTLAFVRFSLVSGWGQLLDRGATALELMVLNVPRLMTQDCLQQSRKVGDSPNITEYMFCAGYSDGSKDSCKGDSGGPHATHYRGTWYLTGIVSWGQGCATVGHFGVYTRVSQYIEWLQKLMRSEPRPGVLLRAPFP

[6] = biological target: T2, human protein C (PC) zymogen; experiment: ELISA screen, PC-coated wells, OD450, n=2

T4 sequence (P03951 19-625 limits assumed): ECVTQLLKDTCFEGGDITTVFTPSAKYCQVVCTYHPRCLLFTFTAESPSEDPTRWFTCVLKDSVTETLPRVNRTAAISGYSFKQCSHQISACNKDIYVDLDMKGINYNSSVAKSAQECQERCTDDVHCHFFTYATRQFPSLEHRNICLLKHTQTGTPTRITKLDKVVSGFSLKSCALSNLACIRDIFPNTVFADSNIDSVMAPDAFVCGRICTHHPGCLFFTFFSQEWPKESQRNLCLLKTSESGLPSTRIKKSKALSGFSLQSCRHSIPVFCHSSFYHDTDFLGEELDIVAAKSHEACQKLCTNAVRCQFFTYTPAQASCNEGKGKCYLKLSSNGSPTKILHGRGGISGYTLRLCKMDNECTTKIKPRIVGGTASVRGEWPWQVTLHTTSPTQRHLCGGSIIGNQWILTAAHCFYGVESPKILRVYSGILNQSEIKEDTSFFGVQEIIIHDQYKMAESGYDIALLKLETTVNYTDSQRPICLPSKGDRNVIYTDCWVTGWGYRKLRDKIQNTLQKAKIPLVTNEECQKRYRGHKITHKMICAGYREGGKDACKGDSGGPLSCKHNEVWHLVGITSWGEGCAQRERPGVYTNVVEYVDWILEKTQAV
T1 sequence (P04070 other isoform, or with tags, fused parts or gaps): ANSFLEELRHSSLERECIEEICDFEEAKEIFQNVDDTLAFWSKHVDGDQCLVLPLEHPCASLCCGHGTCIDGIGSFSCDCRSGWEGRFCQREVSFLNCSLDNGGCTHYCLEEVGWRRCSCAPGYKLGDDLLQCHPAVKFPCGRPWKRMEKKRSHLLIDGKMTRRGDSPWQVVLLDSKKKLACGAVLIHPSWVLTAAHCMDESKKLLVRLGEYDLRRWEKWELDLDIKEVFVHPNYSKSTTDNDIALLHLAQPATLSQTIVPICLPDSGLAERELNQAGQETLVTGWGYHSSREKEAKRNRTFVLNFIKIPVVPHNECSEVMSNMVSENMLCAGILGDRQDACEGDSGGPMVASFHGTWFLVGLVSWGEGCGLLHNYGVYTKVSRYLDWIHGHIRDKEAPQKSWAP
T3 sequence (P04070 other isoform, or with tags, fused parts or gaps): as above
T2 sequence (P04070 43-197, chain 1 of 2): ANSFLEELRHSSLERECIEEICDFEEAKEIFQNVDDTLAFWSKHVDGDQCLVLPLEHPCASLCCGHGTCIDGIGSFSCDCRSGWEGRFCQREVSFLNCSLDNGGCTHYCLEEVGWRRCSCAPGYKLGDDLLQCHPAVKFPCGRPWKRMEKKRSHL
T2 sequence (P04070 200-461, chain 2 of 2): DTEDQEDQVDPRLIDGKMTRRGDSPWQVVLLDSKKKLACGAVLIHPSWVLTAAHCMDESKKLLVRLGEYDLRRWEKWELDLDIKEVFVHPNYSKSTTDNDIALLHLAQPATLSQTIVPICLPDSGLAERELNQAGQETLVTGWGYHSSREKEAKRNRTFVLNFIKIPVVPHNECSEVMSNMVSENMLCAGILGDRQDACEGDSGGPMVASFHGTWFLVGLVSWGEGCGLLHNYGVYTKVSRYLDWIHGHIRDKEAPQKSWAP

Row | Binder | binding result [4] | binding result [5] | further results
1 | B1 | – | – | APC-mediated histone H3 cleavage, 500 nM nanobody [1]: < 75 % residual activity; Kd [2]: 15 nM; koff [2]: 0.009 s⁻¹; kon [2]: 590000 M⁻¹ s⁻¹; APC binding (nm) [3]: 0.32 nm
2 | B2 | no binding | binds | –
3 | B3 | no binding | binds | –
4 | B4 | no binding | binds | –
5 | B5 | no binding | binds | –
6 | B6 | – | – | binding result (FXIa): no binding (tested: 2 µg/mL); binding result (FVIIa): no binding (tested: 2 µg/mL)
7 | B7 | no binding | binds | –
8 | B8 | no binding | binds | –
9 | B9 | no binding | binds | –
10 | B10 | no binding | binds | –
11 | B11 | no binding | binds | –
12 | B12 | no binding | binds | –
13 | B13 | – | – | binding result (FXIa): no binding (tested: 2 µg/mL); binding result (FVIIa): no binding (tested: 2 µg/mL)
14 | B14 | no binding | binds | –
15 | B15 | – | – | binding result (FXIa): no binding (tested: 2 µg/mL); binding result (FVIIa): no binding (tested: 2 µg/mL)
16 | B16 | no binding | binds | –
17 | B17 | – | – | binding result (FXIa): no binding (tested: 2 µg/mL); binding result (FVIIa): no binding (tested: 2 µg/mL)
18 | B18 | no binding | binds | –
19 | B19 | no binding | binds | –
20 | B20 | – | binds | binding result [6]: no binding
21 | B21 | – | – | binding result (FXIa): no binding (tested: 2 µg/mL); binding result (FVIIa): no binding (tested: 2 µg/mL)
22 | B22 | no binding | binds | –
23 | B23 | no binding | binds | –
24 | B24 | no binding | binds | –
25 | B25 | – | – | binding result (FXIa): no binding (tested: 2 µg/mL); binding result (FVIIa): no binding (tested: 2 µg/mL)
26 | B26 | no binding | binds | –
27 | B27 | no binding | binds | –
28 | B28 | no binding | binds | –
